Values of other authors, collected in PMC4747809.

Key:
[1] = target: iC3b/C3dg TED (iC3b, C3dg) (Homo sapiens) (UniProt P01024)
[2] = target: iC3b/C3dg iC3b, C3dg (Homo sapiens) (UniProt P01024)
iC3b/C3dg iC3b, C3dg (Homo sapiens), sequence (P01024 955-1303): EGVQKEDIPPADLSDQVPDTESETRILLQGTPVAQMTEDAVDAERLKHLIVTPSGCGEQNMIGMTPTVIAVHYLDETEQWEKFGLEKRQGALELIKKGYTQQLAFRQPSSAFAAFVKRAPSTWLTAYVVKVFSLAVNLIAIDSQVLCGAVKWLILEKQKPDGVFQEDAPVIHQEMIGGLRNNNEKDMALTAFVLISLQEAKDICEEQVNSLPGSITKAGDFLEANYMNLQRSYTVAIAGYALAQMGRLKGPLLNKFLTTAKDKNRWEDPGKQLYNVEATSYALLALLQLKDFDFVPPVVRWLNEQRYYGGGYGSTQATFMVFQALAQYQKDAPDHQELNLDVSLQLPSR

Complement receptor 2 (CR2) domains 1-4, sequence (P20023 21-273): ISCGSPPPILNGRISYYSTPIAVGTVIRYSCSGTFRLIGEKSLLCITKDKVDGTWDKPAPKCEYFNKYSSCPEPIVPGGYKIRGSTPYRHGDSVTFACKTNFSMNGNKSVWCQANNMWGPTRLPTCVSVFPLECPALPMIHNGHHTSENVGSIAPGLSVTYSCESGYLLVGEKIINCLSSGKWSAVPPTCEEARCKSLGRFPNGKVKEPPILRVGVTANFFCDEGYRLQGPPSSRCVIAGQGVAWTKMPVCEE
iC3b/C3dg TED (iC3b, C3dg) (Homo sapiens), sequence (P01024 955-1303): as the sequence (P01024 955-1303) above
Factor H (FH) domains 19-20, sequence (P08603 1107-1231): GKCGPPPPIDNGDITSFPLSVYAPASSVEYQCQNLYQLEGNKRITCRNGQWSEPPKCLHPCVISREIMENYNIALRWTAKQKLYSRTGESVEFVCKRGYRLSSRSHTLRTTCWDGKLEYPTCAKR

Row | Kd [1] [nM] | Kd [2] [nM] | Substance
1 | 500 | – | Complement receptor 2 (CR2) domains 1-4 (from UniProt P20023)
2 | – | 5000 | Factor H (FH) domains 19-20 (from UniProt P08603)
